For five molecules, Kd results are on record in article PMC3643951 (PLoS ONE, 2013).

Positions count from the first letter of the chain named. Names may count otherwise.

T1: S100A1 protein, dansyl-labelled (human, UniProt P23297 1-94, dansyl (DNS) label from dansyl chloride, site not stated)
T1 construct: human S100A1; cDNA cloned into pET28b; No tag is mentioned; purification was by Phenyl Sepharose; also called DNS-S100A1; Ca2+-S100A1; source: E. coli BL21, purified (Phenyl Sepharose CL4B, Superdex 75), labelled with dansyl chloride
T1 sequence (looked up): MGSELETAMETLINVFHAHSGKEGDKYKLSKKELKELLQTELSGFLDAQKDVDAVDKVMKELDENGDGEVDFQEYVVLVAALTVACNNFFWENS

B1: TRPC6(801–878) K856A (domain or fragment, rat, UniProt Q99N78 801-878, looked up)
chain: NKRNEEKKFGILGSHEDLSKFSLDRNQLAHNKQSSTRSSEDFHLNSFSNPPRQYQAIMKRLIKRYVLQAQIDKESDEV
notes: C-terminal part of rat TRPC6, amino acids 801-878, with K856A; Same construct as m1 (pET42b) with the point mutation; source: E. coli Rosetta, purified (Chelating Sepharose Fast Flow, Superdex 75)
B2: TRPC6(801–878) R852A (domain or fragment, rat, UniProt Q99N78 801-878, looked up)
chain: B1 chain with R52A, A56K
notes: C-terminal part of rat TRPC6, amino acids 801-878, with R852A; Same construct as m1 (pET42b) with the point mutation; also called TRPC6 single mutant R852A; source: E. coli Rosetta, purified (Chelating Sepharose Fast Flow, Superdex 75)
B3: TRPC6(801–878) K859A/R860A/R864A (domain or fragment, rat, UniProt Q99N78 801-878, looked up)
chain: B1 chain with A56K, K59A, R60A, R64A
notes: C-terminal part of rat TRPC6, amino acids 801-878, with K859A, R860A and R864A; Same construct as m1 (pET42b) with the triple substitution; also called triple substitution Lys859/Arg860/Arg864; source: E. coli Rosetta, purified (Chelating Sepharose Fast Flow, Superdex 75)
B4: TRPC6(801–878) R864A (domain or fragment, rat, UniProt Q99N78 801-878, looked up)
chain: B1 chain with A56K, R64A
notes: C-terminal part of rat TRPC6, amino acids 801-878, with R864A; Same construct as m1 (pET42b) with the point mutation; source: E. coli Rosetta, purified (Chelating Sepharose Fast Flow, Superdex 75)
B5: TRPC6(801–878) R852A/K859A/R860A (domain or fragment, rat, UniProt Q99N78 801-878, looked up)
chain: B1 chain with R52A, A56K, K59A, R60A
notes: C-terminal part of rat TRPC6, amino acids 801-878, with R852A, K859A and R860A; Same construct as m1 (pET42b) with the triple substitution; also called triple mutation Arg852/Lys859/Arg860; source: E. coli Rosetta, purified (Chelating Sepharose Fast Flow, Superdex 75)

This test concerns the target T1, S100A1 protein, dansyl-labelled. Nature of the test: fluorescence polarisation; steady-state fluorescence anisotropy; TRPC6 construct titrated into DNS-S100A1 solution (232 µM as printed) in presence of calcium ions; excitation 340 nm, emission 520 nm. The following applies: both partners purified.
Usually Kd stands for the constant that tells how readily two partners part at equilibrium. B1: the Kd was 760 nM.
The result for B2 reads 480 nM; that for B3, 400 nM; that for B4, 920 nM.
The result for B5 reads 2620 nM.
